In publication PMC2731897:

Key:
Experiment in all cases: EMSA
[1] = biological target: T1, GroEL1 (untagged) (Mycobacterium tuberculosis) (UniProt P9WPE9)
T1 sequence: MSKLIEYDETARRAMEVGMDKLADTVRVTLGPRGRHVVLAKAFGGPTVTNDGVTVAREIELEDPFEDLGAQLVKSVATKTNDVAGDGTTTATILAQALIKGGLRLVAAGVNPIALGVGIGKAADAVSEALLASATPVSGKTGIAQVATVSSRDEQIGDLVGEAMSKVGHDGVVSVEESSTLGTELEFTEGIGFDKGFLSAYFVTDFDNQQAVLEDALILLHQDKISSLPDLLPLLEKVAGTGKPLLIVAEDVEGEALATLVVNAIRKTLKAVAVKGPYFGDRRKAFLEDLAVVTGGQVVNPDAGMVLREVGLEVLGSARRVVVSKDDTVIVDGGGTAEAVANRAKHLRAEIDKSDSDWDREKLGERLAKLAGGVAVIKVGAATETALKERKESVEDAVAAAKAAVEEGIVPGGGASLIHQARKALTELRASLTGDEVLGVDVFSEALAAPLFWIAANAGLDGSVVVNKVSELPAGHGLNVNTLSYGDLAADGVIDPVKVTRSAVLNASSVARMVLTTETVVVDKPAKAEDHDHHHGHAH

GroEL1 (untagged) [2] = biological target: T2, GroEL1 (untagged) (Mycobacterium tuberculosis, UniProt P9WPE9 1-539)
T2 sequence: T1 sequence

GroEL1 (untagged) [3] = biological target: T2, GroEL1 (untagged); remark: listed apart in the source

Q: “TATATAGTCGACCCAGGTGATTCGGCATTCGTCCGCGCCCTCGCGCCGTCGTCGCGGGTGCCGACGCAGGGGTTAGCCGATTGCCATCTAGCACTCTATACATGAGAGTGCTAGCACTCAAGGGCGCCCCCTTGCTTCCTGGTTGCCAGCGTGTCTCTAGATATATA (double strand) [groES upstream region, 140 bp]” was tested. Which binding [1] did it give?
A: binds

B1: MutO6 ss (ssDNA)
DNA: TTAGCCGATTGCCATCTAGCACTCTATACATGTTGGAACGGACACTCAAGGGCGCCCCCT
Q: Does B1 bind (GroEL1 (untagged) [2])?
A: binds

B2: MutO3 ss (ssDNA)
DNA: TTAGCCGATTGCCATTCCTGTACAAATACATGAGAGTGCTAGCACTCAAGGGCGCCCCCT
Q: Does B2 bind (GroEL1 (untagged) [2])?
A: binds

B3: MutO4 ss (ssDNA)
DNA: GTGCACTTAGCCGATTGCCATTCTATACATGAGACACTCAAGGGCGCCCCCTCTAGCTAG
Q: Does B3 bind (GroEL1 (untagged) [2])?
A: binds

B4: MutO5 ss (ssDNA)
DNA: TTAGCCGATTGCCATCTAGCACTCTGCGCCCCCTATACATGAGAGTGCTAGCACTCAAGG
Q: Does B4 bind (GroEL1 (untagged) [2])?
A: binds

B5: MutO7 ss (ssDNA)
DNA: TTAGCCGATTGCCATCACGCACTACGTAGTGTCTATGTATCGATCTCAAGGGCGCCCCCT
Q: Does B5 bind (GroEL1 (untagged) [2])?
A: binds

B6: MutO2 ss (ssDNA)
DNA: ATACTTAGCCGATTGCCATCTAGCACTCTAGAGTGCTAGCACTCAAGGGCGCCCCCTATG
Q: Does B6 bind (GroEL1 (untagged) [2])?
A: binds

B7: CIRCE2FR (dsDNA)
DNA 1: TTAGCCGATTGCCATCTAGCACTCTATACATGAGAGTGCTAGCACTCAAGGGCGCCCCCT
DNA 2: AGGGGGCGCCCTTGAGTGCTAGCACTCTCATGTATAGAGTGCTAGATGGCAATCGGCTAA
Q: With B7 as the molecule, how does the Kd (GroEL1 (untagged) [3]) read?
A: 143 nM

B8: CIRCE2F ss (ssDNA)
DNA: B7 DNA 1
Q: Does B8 bind (GroEL1 (untagged) [2])?
A: binds
